Measurements: patent US20180036256

Experiments:
[1] = molecular target: GST-LSD1 (UniProt O60341)
[2] = molecular target: GST-LSD1 K114A (UniProt O60341)

GST-G9A aa786-1210
methylation at K114 in vitro (methylation assay, Western blot with anti-LSD1 K114me2) [1]: GST-LSD1 but not GST-LSD1 K114A is methylated at K114 by G9A in the presence of SAM | methylation at K114 in vitro (methylation assay, Western blot with anti-LSD1 K114me2) [2]: GST-LSD1 but not GST-LSD1 K114A is methylated at K114 by G9A in the presence of SAM
